No end group written: not given here.
What was measured:
Test in all cases: SPR
[1] = molecular target: T1, dual SH2 domains of SHP2
T1 chain: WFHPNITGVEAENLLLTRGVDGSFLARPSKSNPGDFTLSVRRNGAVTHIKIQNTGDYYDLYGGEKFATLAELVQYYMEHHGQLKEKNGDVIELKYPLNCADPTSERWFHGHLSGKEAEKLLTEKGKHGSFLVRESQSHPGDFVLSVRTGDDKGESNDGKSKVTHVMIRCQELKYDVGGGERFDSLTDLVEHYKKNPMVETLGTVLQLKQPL

[2] = molecular target: T2, C-terminal SH2 domain of SHP2
T2 chain: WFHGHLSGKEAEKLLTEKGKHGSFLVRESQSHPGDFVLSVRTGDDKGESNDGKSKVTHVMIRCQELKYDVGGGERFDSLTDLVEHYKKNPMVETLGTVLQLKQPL

[3] = molecular target: T3, N-terminal SH2 domain of SHP2
T3 chain: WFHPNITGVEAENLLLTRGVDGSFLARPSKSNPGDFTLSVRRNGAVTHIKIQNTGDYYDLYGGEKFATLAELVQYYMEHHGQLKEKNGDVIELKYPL

[4] = molecular target: T1, dual SH2 domains of SHP2
[5] = molecular target: T2, C-terminal SH2 domain of SHP2
[6] = molecular target: T3, N-terminal SH2 domain of SHP2

B1: phosphorylated PD1 ITSM peptide (peptide)
chain: KTPEPPVPSVPEQTEYATIVFPSGMGTSS
modifications: also: phosphorylated, residue not given here, biotinylated, position not given here
For B1, the Kd [1] was 3.01 nM, the Kd [2] was 15.1 nM and the Kd [3] was 0.442 nM.

B2: phosphorylated PD1 ITIM peptide (peptide)
chain: KEDPSAVPVFSVDYGELDFQWRE
modifications: also: phosphorylated, residue not given here, biotinylated, site not given here
B2 gave a Kd [1] of 1.84 nM, a Kd [2] of 0.638 nM and a Kd [3] of 3.35 nM. The koff [4] was 0.000121 s⁻¹, the koff [5] was 0.00329 s⁻¹ and the koff [6] was 0.000297 s⁻¹.

— publication PMC10272835 (2023)
